We go through ten molecules from patent US8114974B2, “Engineered microorganisms with enhanced fermentation activity” (Verdezyne, Inc., priority 2009, dated 2012).

In data set [1] the test system is xylose isomerase. Description: Heterologous xylose isomerase expression in yeast (active yes/no). The conditions noted are these: xylose isomerase of the donor organism expressed in engineered yeast (S. cerevisiae). The format is cell-based, Saccharomyces cerevisiae.
For data set [2], the system named is xylose isomerase. Description: In vitro xylose isomerase activity assay (sorbitol dehydrogenase/NADH coupled, A340; Km, specific activity, Ki for xylitol). The format is biochemical, Saccharomyces cerevisiae.
Protocol: About 20 μg of soluble whole cell extract was incubated in the presence of 100 mM Tris, pH 7.5, 10 mM MgCl2, 0.15 mM NADH (Sigma, St. Louis, Mo.), and about 2 U sorbitol dehydrogenase (Roche) at about 30° C. […] A Beckman DU-800 was utilized with an Enzyme Mechanism software package (Beckman Coulter, Inc.), and the change in the A340 was monitored for 2-3 minutes.
Approximately 20 μg of soluble whole cell extract from each transformed cell line, prepared using Y-PER plus reagent as described above, was incubated in a solution containing about 100 mM Tris, pH 7.5, 10 mM MgCl ? 2, 0.15 mM NADH (Sigma, St. Louis, Mo.), and 2 U Sorbitol Dehydrogenase (SDH) (Roche, Indianapolis, Ind.) at about 30° C. […] A Beckman DU-800 spectrophotometer was utilized with an Enzyme Mechanism software package (Beckman Coulter, Inc, Brea, Calif.), and the change in the A340 was monitored for 2-3 minutes.
Approximately 20 μg of soluble whole cell extract from each transformed cell line was prepared using Y-PER plus reagent as described above was incubated in a solution containing about 100 mM Tris, pH 7.5, 10 mM MgCl2, 0.15 mM NADH (Sigma, St. Louis, Mo.), and 2 U sorbitol dehydrogenase (SDH) (Roche, Indianapolis, Ind.) at about 30° C. […] A Beckman DU-800 spectrophotometer was utilized with an Enzyme Mechanism software package (Beckman Coulter, Inc, Brea, Calif.), and the change in the A340 was monitored for 2-3 minutes.
Approximately 20 μg of soluble whole cell extract from each transformed cell line was prepared using Y-PER plus reagent as described above was incubated in a solution containing about 100 mM Tris, pH 7.5, 10 mM MgCl ? .2, 0.15 mM NADH (Sigma, St. Louis, Mo.), and 2 U Sorbitol Dehydrogenase (SDH) (Roche, Indianapolis, Ind.) at about 30° C. […] A Beckman DU-800 spectrophotometer was utilized with an Enzyme Mechanism software package (Beckman Coulter, Inc, Brea, Calif.), and the change in the A340 was monitored for 2-3 minutes.
The Clostridiales enzyme was further characterized at 1974 μg to confirm the presence of activity.
[3] abbreviates: chimeric variants, soluble whole cell extract, xylose 40-500 mM.

Turning to “Bacteroides thetaiotaomicron: xylose isomerase of this donor organism”, in data set [1], the “Active? (yes/no)” value is “Yes”.

With “Thermus thermophilus: xylose isomerase of this donor organism”, in data set [1], the “Active? (yes/no)” value is given as “Yes”.

On to “Piromyces: xylose isomerase from Piromyces strain E2 (SEQ ID NO: 35)”, for which the “Specific Activity” value stood at 2.02 µmol/min/mg in data set [2] (G179A mutant kinetic assays, xylose 40-500 mM); 2.02 µmol/min/mg in data set [2] (setting [3]); 2.02 µmol/min/mg in data set [2] (soluble whole cell extract, xylose 40-500 mM, 30° C., pH 7.5). Also, the “Active? (yes/no)” value in data set [1] was “Yes”.

Turning to “Actinoplanes missouriensis: xylose isomerase of this donor organism”, in data set [1], the “Active? (yes/no)” value is “No”.

“Streptomyces rubiginosus: xylose isomerase of this donor organism”: the “Active? (yes/no)” value in data set [1] was “No”.

B1: Escherichia coli: xylose isomerase of this donor organism (protein, UniProt P00944 1-440, looked up)
Xylose isomerase: MQAYFDQLDRVRYEGSKSSNPLAFRHYNPDELVLGKRMEEHLRFAACYWHTFCWNGADMFGVGAFNRPWQQPGEALALAKRKADVAFEFFHKLHVPFYCFHDVDVSPEGASLKEYINNFAQMVDVLAGKQEESGVKLLWGTANCFTNPRYGAGAATNPDPEVFSWAATQVVTAMEATHKLGGENYVLWGGREGYETLLNTDLRQEREQLGRFMQMVVEHKHKIGFQGTLLIEPKPQEPTKHQYDYDAATVYGFLKQFGLEKEIKLNIEANHATLAGHSFHHEIATAIALGLFGSVDANRGDAQLGWDTDQFPNSVEENALVMYEILKAGGFTTGGLNFDAKVRRQSTDKYDLFYGHIGAMDTMALALKIAARMIEDGELDKRIAQRYSGWNSELGQQILKGQMSLADLAKYAQEHHLSPVHQSGRQEQLENLVNHYLFDK
With B1, the “Active? (yes/no)” value in data set [1] is listed as “No”.

B2: Clostridium phytofermentans: xylose isomerase of this donor organism (protein)
chain: MKNYFPNVPEVKYEGPNSTNPFAFKYYDANKVVAGKTMKEHCRFALSWWHTLCAGGADPFGVTTMDRTYGNITDPMELAKAKVDAGFELMTKLGIEFFCFHDADIAPEGDTFEESKKNLFEIVDYIKEKMDQTGIKLLWGTANNFSHPRFMH
modifications: Clostridium phytofermentans
notes: xylose isomerase of this donor organism
Turning to B2, the “Active? (yes/no)” value in data set [1] was “Yes”.

B3: R. flavefaciens, FD-1 XI: xylose isomerase of Ruminococcus flavefaciens FD1 (ZP_06143883.1, SEQ ID NO: 110) (protein, listed as Ruminococcus flavefaciens)
chain: MEFFKNISKIPYEGKDSTNPLAFKYYNPDEVIDGKKMRDIMKFALSWWHTMGGDGTDMFGCGTADKTWGENDPAARAKAKVDAAFEIMQKLSIDYFCFHDRDLSPEYGSLKDTNAQLDIVTDYIKAKQAETGLKCLWGTAKCFDHPRFMHGAGTSPSADVFAFSAAQIKKALESTVKLGGTGYVFWGGREGYETLLNTNMGLELDNMARLMKMAVEYGRSIGFKGDFYIEPKPKEPTKHQYDFDTATVLGFLRKYGLDKDFKMNIEANHATLAQHTFQHELCVARTNGAFGSIDANQGDPLLGWDTDQFPTNIYDTTMCMYEVIKAGGFTNGGLNFDAKARRGSFTPEDIFYSYIAGMDAFALGYKAASKLIADGRIDSFISDRYASWSEGIGLDIISGKADMAALEKYALEKGEVTDSISSGRQELLESIVNNVIFNL
Consider B3, for which the “xylose isomerase activity (slope) of candidate enzymes (FIG. 25)” value in data set [2] (100 μg total soluble crude extract, saturating xylose (500 mM)) is on record as “highest activity of the candidates tested”. Also, the “specific activity relative to the native XI control activity” value in data set [2] (Michaelis Mentin plots, xylose between 40 and 500 nM as printed) is on record as “greater than 2 fold”.

B4: Bacillus subtilis: xylose isomerase of this donor organism (protein, UniProt P0CI80 1-445, looked up)
Xylose isomerase: MAQSHSSSINYFGSANKVVYEGKDSTNPLAFKYYNPQEVIGGKTLKEHLRFSIAYWHTFTADGTDVFGAATMQRPWDHYKGMDLAKMRVEAAFEMFEKLDAPFFAFHDRDIAPEGSTLKETNQNLDMIMGMIKDYMRNSGVKLLWNTANMFTNPRFVHGAATSCNADVFAYAAAQVKKGLETAKELGAENYVFWGGREGYETLLNTDLKFELDNLARFMHMAVDYAKEIGYTGQFLIEPKPKEPTTHQYDTDAATTIAFLKQYGLDNHFKLNLEANHATLAGHTFEHELRMARVHGLLGSVDANQGHPLLGWDTDEFPTDLYSTTLAMYEILQNGGLGSGGLNFDAKVRRSSFEPDDLIYAHIAGMDAFARGLKVAHKLIEDRVFEDVIQHRYRSFTEGIGLEIIEGRANFHTLEQYALNHKSIKNESGRQEKLKAILNQYILEV
Turning to B4, the “Active? (yes/no)” value in data set [1] is on record as “No”.

B5: XI-Rp5: chimera: first 5 amino acids of Piromyces xylose isomerase fused to Ruminococcus xylose isomerase (SEQ ID NO. 56) (protein)
chain: MAKEYFSNIGKIQYQGPKSTDPLSFKYYNPEEVINGKTMREHLKFALSWWHTMGGDGTDMFGCGTTDKTWGQSDPAARAKAKVDAAFEIMDKLSIDYYCFHDRDLSPEYGSLKATNDQLDIVTDYIKEKQGDKFKCLWGTAKCFDHPRFMHGAGTSPSADVFAFSAAQIKKALESTVKLGGNGYVFWGGREGYETLLNTNMGLELDNMARLMKMAVEYGRSIGFKGDFYIEPKPKEPTKHQYDFDTATVLGFLRKYGLDKDFKMNIEANHATLAQHTFQHELRVARDNGVFGSIDANQGDVLLGWDTDQFPTNIYDTTMCMYEVIKAGGFTNGGLNFDAKARRGSFTPEDIFYSYIAGMDAFALGFRAALKLIEDGRIDKFVADRYASWNTGIGADIIAGKADFASLEKYALEKGEVTASLSSGRQEMLESIVNNVLFSL
With B5, in data set [2] (setting [3]), the Km came out at 66.5 mM and the “Specific Activity” value came out at 1.45 µmol/min/mg.

What is called Km is the substrate concentration at which the rate is half of its maximum.
